Key:
[1] = literature values for comparison; cited from earlier work
[2] = ATPase assay (modified malachite green method); assay type: biochemical, Strongylocentrotus purpuratus
Description: ATPase activity was measured by a modified malachite green method (Kodama et al. (1986) J. Biochem. 99: 1465-1472). ATPase reactions of 50-100 μl, were carried out in a buffer previously used for measuring the ATPase activity of native katanin [20 mM K-HEPES pH 8.0, 25 mM potassium glutamate 2 mM MgCl2, 10% glycerol (v/v), 0.02% Triton X-100 (w/v), 1 mg/ml BSA] (McNally and Vale (1993) Cell, 75: 419-429), except that soybean trypsin inhibitor (SBTI) was replaced by BSA as a carrier protein because SBTI increased background phosphate contamination. An ATP regenerating system, consisting of 0.5-1.0 mM phosphoenol pyruvate and 2 units of pyruvate kinase, was included to minimize the inhibition by ADP observed previously for native katanin (McNally and Vale (1993) Cell, 75: 419-429). Microtubules were prepared from bovine brain tubulin (Hyman et al. (1990) Meth. Enzymol. 196: 303-319; and Williams and Lee (1982) Meth Enzymol. 85B: 376-385). After assembly, microtubules were sedimented (230,000×g; 10 min), resuspended in ATPase buffer lacking BSA, and the polymers were resuspended by repeated passage through a 27 gauge needle. Microtubule concentration was determined by measuring the absorbance at 275 nm in 6 M guanidine HCl by using a molecular mass of 110 kDa and an extinction coefficient of 1.03 ml mg^−1 cm^−1 (Hackney (1988) Proc. Natl. Acad. Sci. USA, 85: 6314-6318). ATPase reactions were carried out at room temperature, and were initiated by addition of katanin.

[3] = system: Taxol-stabilized, rhodamine-labeled microtubules; assay: Microscope-based microtubule severing assay; assay type: biochemical
Description: Microscope-based severing assays were performed using previously published procedures (McNally and Vale (1993) Cell, 75: 419-429), except that microtubules were immobilized by first perfusing flow cells with a bacterially expressed kinesin mutant that binds strongly to microtubules but is unable to hydrolyze ATP (K560, G234A mutant; R. Vale and E. Taylor, unpublished results). Assays were performed in 20 mM Hepes (pH 7.5), 2 mM MgCl2, 1 mM ATP with an oxygen scavenger system consisting of glucose oxidase (220 μg/ml), catalase (36 μg/ml), glucose (22.5 mM), and 2-mercaptoethanol (71.5 mM). Images were captured using a cooled, slow-scan CCD (Photometerics) and processed using Adobe Photoshop.

[4] = system: microtubules; assay: DAPI fluorescence microtubule disassembly (severing) assay; assay type: biochemical, bovine; conditions: 2 μM microtubules, 0.2 μM protein
Description: ATPase activity was measured by a modified malachite green method (Kodama et al. (1986) J. Biochem. 99: 1465-1472). ATPase reactions of 50-100 μl, were carried out in a buffer previously used for measuring the ATPase activity of native katanin [20 mM K-HEPES pH 8.0, 25 mM potassium glutamate 2 mM MgCl2, 10% glycerol (v/v), 0.02% Triton X-100 (w/v), 1 mg/ml BSA] (McNally and Vale (1993) Cell, 75: 419-429), except that soybean trypsin inhibitor (SBTI) was replaced by BSA as a carrier protein because SBTI increased background phosphate contamination. […] Microtubule concentration was determined by measuring the absorbance at 275 nm in 6 M guanidine HCl by using a molecular mass of 110 kDa and an extinction coefficient of 1.03 ml mg^−1 cm^−1 (Hackney (1988) Proc. Natl. Acad. Sci. USA, 85: 6314-6318). […]
DAPI severing assays were performed using conditions where the change in fluorescence intensity was linear with the amount of tubulin polymer added (Heusele et al. (1987) Eur. J. Biochem. 165: 613-620). […] The reaction volume was 80 μL, and fluorescence intensity was measured by exciting at 370 nm, and measuring the emission at 450 nm using a model 8100 fluorimeter (SLM Instruments) in photon counting mode.

B1: NSF: recombinant NSF, AAA ATPase cited for comparison (protein, UniProt P46459 1-744, looked up)
Vesicle-fusing ATPase: MAGRSMQAARCPTDELSLTNCAVVNEKDFQSGQHVIVRTSPNHRYTFTLKTHPSVVPGSIAFSLPQRKWAGLSIGQEIEVSLYTFDKAKQCIGTMTIEIDFLQKKSIDSNPYDTDKMAAEFIQQFNNQAFSVGQQLVFSFNEKLFGLLVKDIEAMDPSILKGEPATGKRQKIEVGLVVGNSQVAFEKAENSSLNLIGKAKTKENRQSIINPDWNFEKMGIGGLDKEFSDIFRRAFASRVFPPEIVEQMGCKHVKGILLYGPPGCGKTLLARQIGKMLNAREPKVVNGPEILNKYVGESEANIRKLFADAEEEQRRLGANSGLHIIIFDEIDAICKQRGSMAGSTGVHDTVVNQLLSKIDGVEQLNNILVIGMTNRPDLIDEALLRPGRLEVKMEIGLPDEKGRLQILHIHTARMRGHQLLSADVDIKELAVETKNFSGAELEGLVRAAQSTAMNRHIKASTKVEVDMEKAESLQVTRGDFLASLENDIKPAFGTNQEDYASYIMNGIIKWGDPVTRVLDDGELLVQQTKNSDRTPLVSVLLEGPPHSGKTALAAKIAEESNFPFIKICSPDKMIGFSETAKCQAMKKIFDDAYKSQLSCVVVDDIERLLDYVPIGPRFSNLVLQALLVLLKKAPPQGRKLLIIGTTSRKDVLQEMEMLNAFSTTIHVPNIATGEQLLEALELLGNFKDKERTTIAQQVKGKKVWIGIKKLLMLIEMSLQMDPEYRVRKFLALLREEGASPLDFD
[1]
  ATPase activity of other AAA family members: 0.08 ATP/sec

B2: Katanin: microtubule-severing heterodimer of 60 kDa and 80 kDa subunits; values match recombinant p60/p80 (protein)
chain 1: HHHHHHMSVDEICENTKMGREYALLGNYETSLVYYQGVLQQIQKLLTSVHEPQRKHQWQTIRQELSQEYEHVKNITKTLNGFKSEPAAPEPAPNHGRAAPFSHHQHAAKPAAAEPARDPDVWPPPTPVDHRPSPPYQRAARKDPPRRSEPSKPANRAPGNDRGGRGPSDRRGDARSGGGGRGGARGSDKDKNRGGKSDKDKKAPSGEEGDEKKFDPAGYDKDLVENLERDIVQRNPNVHWADIAGLTEAKRLLEEAVVLPLWMPDYFKGIRRPWKGVLMVGPPGTGKTMLAKAVATECGTTFFNVSSASLTSKYHGESEKLVRLLFEMARFYAPSTIFIDEIDSICSKRGTGSEHEASRRVKSELLIQMDGVSGPSAGEESSKMVMVLAATNFPWDIDEALRRRLEKRIYIPLPEIDGREQLLRINLKEVPLADDIDLKSIAEKMDGYSGADITNVCRDASMMAMRRRIQGLRPEEIRHIPKEELNQPSTPADFLLALQKVSKSVGKEDLVKYMAWMEEFGSV
chain 2: HHHHHHMATKRAWKLQELVAHSSNVNCLALGPMSGRVMVTGGEDKKVNLWAVGKQNCIISLSGHTSPVDSVKFNSSEELVVAGSQSGTMKIYDLEPAKIVRTLTGHRNSIRCMDFHPFGEFVASGSTDTNVKLWDVRRKGCIYTYKGHSDQVNMIKFSPDGKWLVTASEDTTIKLWDLTMGKLFQEFKNHTGGVTGIEFHPNEFLLASGSSDRTVQFWDLETFQLVSSTSPGASAVRSISFHPDGSYLFCSSQDMLHAFGWEPIRCFDTFSVFWGKVADTVIASTQLIGASFNATNVSVYVADLSRMSTTGIAQEPQSQPSKTPSGGAEEVPSKPLTASGRKNFVRERPHTTSSKQRQPDVKSEPERQSPTQDEGVKDDDATDIKDPDSYAKIFSPKTRVDHSPERNAQPFPAPLDVPGAQEPEPFKHPPKPAAAAAVAPVSRAPAPSASDWQPAQANPAPNRVPAATKPVPAQEVAPSRKPDPISTIIPSDRNKPANLDMDAFLPPAHAQQAPRVNAPASRKQSDSERIEGLRKGHDSMCQVLSSRHRNLDVVRAIWTAGDAKTSVESVVNMKDQAILVDILNIMLLKKSLWNLDMCVVVLPRLKELLSSKYENYVHTSCACLKLILKNFTSLFNQNIKCPPSGIDITREERYNKCSKCYSYLIATRGYVEEKQHVSGKLGSSFRELHLLLDQLE
[2]
  basal ATPase activity: 0.3 ATP/katanin/sec
  maximal microtubule-stimulated ATPase rate: 3 ATP/katanin/sec

B3: p80: baculovirus-expressed His-tagged S. purpuratus katanin p80 subunit (SEQ ID NO:2), contains WD40 repeats (protein, listed as Strongylocentrotus purpuratus)
chain: MATKRAWKLQELVAHSSNVNCLALGPMSGRVMVTGGEDKKVNLWAVGKQNCIISLSGHTSPVDSVKFNSSEELVVAGSQSGTMKIYDLEPAKIVRTLTGHRNSIRCMDFHPFGEFVASGSTDTNVKLWDVRRKGCIYTYKGHSDQVNMIKFSPDGKWLVTASEDTTIKLWDLTMGKLFQEFKNHTGGVTGIEFHPNEFLLASGSSDRTVQFWDLETFQLVSSTSPGASAVRSISFHPDGSYLFCSSQDMLHAFGWEPIRCFDTFSVFWGKVADTVIASTQLIGASFNATNVSVYVADLSRMSTTGIAQEPQSQPSKTPSGGAEEVPSKPLTASGRKNFVRERPHTTSSKQRQPDVKSEPERQSPTQDEGVKDDDATDIKDPDSYAKIFSPKTRVDHSPERNAQPFPAPLDVPGAQEPEPFKHPPKPAAAAAVAPVSRAPAPSASDWQPAQANPAPNRVPAATKPVPAQEVAPSRKPDPISTIIPSDRNKPANLDMDAFLPPAHAQQAPRVNAPASRKQSDSERIEGLRKGHDSMCQVLSSRHRNLDVVRAIWTAGDAKTSVESVVNMKDQAILVDILNIMLLKKSLWNLDMCVVVLPRLKELLSSKYENYVHTSCACLKLILKNFTSLFNQNIKCPPSGIDITREERYNKCSKCYSYLIATRGYVEEKQHVSGKLGSSFRELHLLLDQLE
modifications: His tag; katanin p80 subunit
[3]; concentrations 5-fold higher than those used for p60 (0.5 μM)
  microtubule severing (in words): unable to sever microtubules
[4]
  rate of microtubule disassembly, DAPI fluorescence decrease (in words): did not cause a change in fluorescence
[2]
  ATPase activity (in words): no detectable ATPase activity

B4: p60: baculovirus-expressed His-tagged S. purpuratus katanin p60 subunit (SEQ ID NO:1), AAA ATPase (protein, listed as Strongylocentrotus purpuratus)
chain: MSVDEICENTKMGREYALLGNYETSLVYYQGVLQQIQKLLTSVHEPQRKHQWQTIRQELSQEYEHVKNITKTLNGFKSEPAAPEPAPNHGRAAPFSHHQHAAKPAAAEPARDPDVWPPPTPVDHRPSPPYQRAARKDPPRRSEPSKPANRAPGNDRGGRGPSDRRGDARSGGGGRGGARGSDKDKNRGGKSDKDKKAPSGEEGDEKKFDPAGYDKDLVENLERDIVQRNPNVHWADIAGLTEAKRLLEEAVVLPLWMPDYFKGIRRPWKGVLMVGPPGTGKTMLAKAVATECGTTFFNVSSASLTSKYHGESEKLVRLLFEMARFYAPSTIFIDEIDSICSKRGTGSEHEASRRVKSELLIQMDGVSGPSAGEESSKMVMVLAATNFPWDIDEALRRRLEKRIYIPLPEIDGREQLLRINLKEVPLADDIDLKSIAEKMDGYSGADITNVCRDASMMAMRRRIQGLRPEEIRHIPKEELNQPSTPADFLLALQKVSKSVGKEDLVKYMAWMEEFGSV
modifications: His tag; katanin p60 subunit
[3]; 0.1 μM protein, 1 mM ATP
  time until microtubules were completely disassembled: 5 min
[4]
  rate of microtubule disassembly, DAPI fluorescence decrease (in words): half as active as p60/p80
[2]; decreases at higher microtubule concentrations
  microtubule concentration at peak ATP turnover stimulation: ~2 μM tubulin
